Measurements taken from PMC3621463 (Nature Communications, 2012).

Target: HDM2 (used for surface plasmon resonance and the competitive binding assay) (UniProt Q00987 1-491)
Test: SPR

HDM2 (used for surface plasmon resonance and the competitive binding assay), sequence (Q00987 whole entry): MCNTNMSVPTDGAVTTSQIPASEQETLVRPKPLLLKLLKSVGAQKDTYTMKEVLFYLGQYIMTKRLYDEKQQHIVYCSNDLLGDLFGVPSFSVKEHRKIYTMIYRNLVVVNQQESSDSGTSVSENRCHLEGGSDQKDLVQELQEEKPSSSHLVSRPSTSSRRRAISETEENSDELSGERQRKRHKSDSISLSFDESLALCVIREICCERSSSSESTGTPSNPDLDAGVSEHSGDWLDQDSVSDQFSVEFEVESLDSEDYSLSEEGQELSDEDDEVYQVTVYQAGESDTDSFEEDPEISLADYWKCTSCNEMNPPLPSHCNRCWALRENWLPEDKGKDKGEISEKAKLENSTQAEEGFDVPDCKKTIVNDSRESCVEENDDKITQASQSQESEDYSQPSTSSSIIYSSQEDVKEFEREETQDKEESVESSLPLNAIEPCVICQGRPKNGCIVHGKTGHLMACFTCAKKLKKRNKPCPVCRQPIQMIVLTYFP

Kd: 694 µM
B1: p53 peptide (amino acids 22-40) N29,30IsoD (peptide)
peptide: LWKLLPEDDVLSPLPSQAM
modifications: isoaspartate at 29 and 30
